Laboratory results: US20100137420

Experiments:
[1] = biological target: cathepsin B (from THP-1 cell lysates), P07858
recombinant cystatin C = biological target: T1, recombinant cystatin C
T1 chain: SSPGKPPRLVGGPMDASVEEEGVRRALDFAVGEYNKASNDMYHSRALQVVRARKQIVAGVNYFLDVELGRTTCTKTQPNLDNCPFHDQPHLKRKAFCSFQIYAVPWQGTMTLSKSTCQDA

B1: MMP-2 (protein)
chain: YNFFPRKPKWDKNQITYRIIGYTPDLDPETVDDAFARAFQVWSDVTPLRFSRIHDGEADIMINFGRWEHGDGYPFDGKDGLLAHAFAPGTGVGGDSHFDDDELWTLGEGQVVRVKYGNADGEYCKFPFLFNGKEYNSCTDTGRSDGFLWCSTTYNFEKDGKYGFCPHEALFTMGGNAEGQPCKFPFRFQGTSYDSCTTEGRTDGYRWCGTTEDYDRDKKYGFCPETAMSTVGGNSEGAPCVFPFTFLGNKYESCTSAGRSDGKMWCATTANYDDDRKWGFCPDQGYSLFLVAAHEFGHAMGLEHSQDPGALMAPIYTYTKNFRLSQDDIKGIQELYGASPDIDLGTGPTPTLGPVTPEICKQDIVFDGIAQIRGEIFFFKDRFIWRTVTPRDKPMGPLLVATFWPELPEKIDAVYEAPQEEKAVFFAGNEYWIYSASTLERGYPKPLTSLGLPPDVQRVDAAFNWSKNKKTYIFAGDKFWRYNEVKKKMDPGFPKLIADAWNAIPDNLDAVVDLQGGGHSYFFKGAYYLKLENQSLKSVKFGSIKSDWLGC
With B1 as the protein, how does the “cathepsin B activity (fluorogenic Ac-Arg-Arg-AFC assay)” value [1] read?
Its value is “Cathepsin D and MMP-2 alone had no effect on cathepsin B activity”.

And the “cleavage of recombinant cystatin C” value (recombinant cystatin C)?
The value was “MMP-2 cleaved cystatin C at three unique sites”.
